Reference: patent US6200577A, “Anti-herpesviral agents and assays therefor” (priority 1996, dated 2001)

Biological target: T1, VP16/VP22trunc interaction (Human herpesvirus 1, UniProt P06492)
T1 construct: Plasmid pETVP16 was used to express full-length VP16 under the control of the T7 RNA polymerase promoter; made in house; host or cells: E. coli BL21(DE3)
Assay: Co-purification of VP16 with VP22trunc on Ni-NTA resin in presence of peptides
Assay type: binding, HSV-1
Conditions: for Co-elution of VP16 with VP22trunc from Ni-NTA resin after incubation with peptide: crude peptide at 2 mg/ml (about 1 mM), equal volume mixed with partially purified VP16 extract before VP22trunc; for Inhibition of VP16 co-elution with VP22trunc, peptides purified to homogeneity: peptides purified by reverse phase HPLC, data not shown
Experimental: FIG. 4 Co-elution of VP16 with VP22trunc from Ni-NTA resin. Partially purified extract containing VP16 was incubated in the absence of (lane 14) or presence of […] of VP22trunc (lanes 3 to 13). In lanes 3 to 12, an equal volume of the individual peptides at 2 mg/ml was added to the extract prior to VP22trunc. Peptides added to each reaction were as follows: lane 3, peptide A; lane 4, peptide B; lane 5, peptide C; lane 6, peptide D; lane 7, peptide E; lane 8, peptide F; lane 9, peptide G; lane 10, peptide H; lane 11, peptide I; lane 12, peptide J; lane 13, no peptide. Lanes 3 to 14 show the polypeptides eluted from Ni-NTA resin. Other samples were as follows: lane 1, partially purified VP16 extract, lane 2, purified VP16; lane 15, purified VP22trunc. Samples were electrophoresed on a 12% polyacrylamide gel and the apparent molecular weights of VP16 (65 KDa) and VP22trunc (16 KDa) are shown.
Co-purification of VP16 with VP22trunc on Ni-NTA Resin. Purified VP22trunc and a partially purified extract containing VP16, both in 20 mM Tris-HCl, pH8.0, 250 mM NaCl, were mixed at 4° C. for 15 to 30 minutes on a rotator. 50 μl of equilibrated Ni-NTA resin was added to each mixture and incubation was continued at 40C for a further 15 to 30 minutes. Resin was pelleted at 800 g for 1 minute and the supernatant (non-bound fraction) was removed. Resin was washed sequentially with 0.5 ml of 20 mM Tris-HCl, pH 8.0, 250 mM NaCl, 5 mM imidazole (twice) and 0.5 ml of 20 mM Tris-HCl, pH 8.0, 250 mM NaCl, 60 mM imidazole (four times). Bound protein was eluted by addition of 50 μl of boiling mix (160 mM Tris-HCl, pH 6.7, 2% SDS, 700 mM β-mercaptoethanol, 10% glycerol, 0.002% bromophenol blue) followed by heating to 100° C. for 5 minutes. For peptide studies, peptides were dissolved in 20 mM Tris-HCl, pH8.0, 250 mM NaCl at a concentration of 2 mg/ml. Incubation of peptides with partially purified VP16 extracts was performed at ambient temperature for 2 hours prior to the addition of VP22trunc. Samples were electrophoresed on denaturing polyacrylamide gels.
Results presented in Section 2(i) had shown that VP16 co-elutes from Ni-NTA resin in the presence of VP22trunc and it was concluded that this indicated interaction between these polypeptides. The ability of synthetic peptides to inhibit this interaction was analysed by mixing them individually with the partially purified VP16 extract prior to addition of VP22trunc. From the intensity of the 65 KDa species in the crude extract (FIG. 4, lane 2), it was estimated that the concentration of VP16 was approximately […]. To ensure that experiments were performed in an excess of peptide, peptides were prepared at a concentration of 2 mg/ml (about 1 mM) and equal volumes of peptide and extract were mixed. This gave a relative molar ratio of VP16 to peptide of 1:300. However, it should be noted that certain peptides were not completely soluble (Table 1) and in those cases, the ratio would be reduced.

T1 sequence (P06492 whole entry): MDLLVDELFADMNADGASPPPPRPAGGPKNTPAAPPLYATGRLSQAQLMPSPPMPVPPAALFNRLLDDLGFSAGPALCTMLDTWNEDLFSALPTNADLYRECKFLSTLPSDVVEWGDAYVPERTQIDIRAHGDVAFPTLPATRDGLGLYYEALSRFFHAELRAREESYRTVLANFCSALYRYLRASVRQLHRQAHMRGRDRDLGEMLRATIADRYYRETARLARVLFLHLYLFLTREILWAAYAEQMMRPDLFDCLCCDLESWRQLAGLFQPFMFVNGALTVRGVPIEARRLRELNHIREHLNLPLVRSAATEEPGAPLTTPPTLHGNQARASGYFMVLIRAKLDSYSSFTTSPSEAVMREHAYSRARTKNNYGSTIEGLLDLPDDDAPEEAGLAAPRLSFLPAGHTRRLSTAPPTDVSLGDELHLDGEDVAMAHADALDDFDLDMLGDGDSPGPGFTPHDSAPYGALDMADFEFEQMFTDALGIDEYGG

| Sequence | Co-elution of VP16 with VP22trunc from Ni-NTA resin after incubation with peptide | Inhibition of VP16 co-elution with VP22trunc, peptides purified to homogeneity |
| --- | --- | --- |
| CAAVGRLAAMHARMAAVQLW [Peptide E] | failed to co-elute | inhibitory capabilities were retained |
| TPRVAGFNKRVFCAAVGRLA [Peptide D] | reduced amounts | inhibitory capabilities were retained |
